Residue numbers refer to the chain shown, from its start.
How the values were obtained:
[1] = target: T1, human TSHR immobilised on coated tubes (TRAK II [DYNOtest human] kit) (human, UniProt P16473 21-764, limits assumed); test: TBII assay, displacement of 125I-TSH from human TSHR coated tubes (TRAK II DYNOtest human)
T1 construct: Receptor of a bought kit; also called human TSHR coated tubes; immobilized human TSHR

[2] = target: T1, human TSHR immobilised on coated tubes …; test: saturation binding of 125I-IgG on human TSHR coated tubes (TRAK II DYNOtest human); printed as Kd but expressed as reciprocal Kd (L/mol)
Method: Free isotope was removed by gel filtration in SEPHAROSE™ G25 columns and specific activity calculated (7). Antibody affinity was measured by saturation binding analysis. […] The affinity results were expressed as reciprocal Kd values (L/mol).
The labeled IgG and Fab fragments of the mabs were then used as tracers in competition studies to study the epitopes on the receptor. […] Serum from normal individuals, with no family history of autoimmunity were used as controls.

[3] = target: human TSHR on stably transfected CHO cells (human, UniProt P16473 21-764); test: cell-based or functional assay

B1: KSAb1 IgG (antibody, V domains shown)
VH: EVQLQQSGPELVKPGASMKISCKASGYSFSAYTMNWVKQSHGKNLEWIGLINPYNGGTNYNQEFEGKATLTVNKSSNTAFMELLSLTSDDSAVYYCARRDWDYFDYWGQGTTLTVSS
VL: DIVMTQSQKFMSTSVGDRVSIICKASQNVGTFVAWYQQKPGQSPKLLVYSASNRYTGVPDRFTGSGSGTDFTLTINNMQSEDLADYFCRQYSSYPYTFGGGTKLEI
notes: also called mAb9; IgG 9
IC50 [1]: 3.3 ng/mL
Ka [2]: 4.5e+10 M⁻¹
EC50 of cAMP stimulation, NaCl-free sucrose HBSS [3]: 9.4 ng/mL
EC50 of cAMP stimulation, physiological NaCl HBSS [3]: 16.5 ng/ml
IgG concentration giving 3 fold cAMP stimulation [3]: 1.2 ng/mL
maximal stimulation of cAMP, fold over basal value [3]: 199 fold over basal

B2: KSAb2 IgG (antibody, V domains shown)
VH: B1 VH with S30T, S40T, E63K, G66D, N73D, F80Y, E82D, D89E
VL: DVVMTQSQKFLSTSAGDRVSISCKASQNVGTALAWYQQKPGQSPKLLIYSASNRNTGVPDRFTGRGFGTDFTLTISNMQSEDLADYFCQQYSSYPYTFGGGTRLEI
notes: also called mAb17; IgG17
IC50 [1]: 10 ng/mL
Ka [2]: 6.25e+10 M⁻¹
EC50 of cAMP stimulation, NaCl-free sucrose HBSS [3]: 93 ng/mL
EC50 of cAMP stimulation, physiological NaCl HBSS [3]: 100 ng/ml
IgG concentration giving 3 fold cAMP stimulation [3]: 2.2 ng/mL
maximal stimulation of cAMP, fold over basal value [3]: 183 fold over basal

Source: patent US8603466 (KING S COLLEGE LONDON, dated 2013)
